Assay results published in patent US20020197647A1 (ROCKEFELLER UNIVERSITY, published 2002).

Target: T1, c-Jun residues 1-104 (Rattus norvegicus (Rat), UniProt P17325 1-101, labeled with 35S by in vitro translation)
T1 construct: In vitro translated fragment; also called N-terminal region of c-Jun
T1 sequence: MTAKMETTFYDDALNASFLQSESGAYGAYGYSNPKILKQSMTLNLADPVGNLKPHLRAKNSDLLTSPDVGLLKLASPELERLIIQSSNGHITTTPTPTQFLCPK
Experiment: GST pull-down of 35S-labeled in vitro translated c-Jun fragment

B1: GST-Stat3 (1-154) (other)
chain: MAQWNQLQQLDTRYLKQLHQLYSDTFPMELRQFLAPWIESQDWAYAASKESHATLVFHNLLGEIDQQYSRFLQESNVLYQHNLRRIKQFLQSRYLEKPMEIARIVARCLWEESRLLQTAATAAQQGGQANHPTAAVVTEKQQMLEQHLQDVRKR
notes: GST is placed N-terminal because of the pGEX vector; not shown: Glutathione S-transferase (GST) fusion partner of vector pGEX-5X-1 (Pharmacia)
Question: Does B1 bind?
Answer: no binding
